Literature values, collected in publication PMC6399403.
Where two headings read alike, the source gives them in different places.

Legend:
CD155 (Homo sapiens) [1] = biological target: CD155 (Homo sapiens) (UniProt P15151)
CD155 (Homo sapiens) [2] = biological target: CD155 (Homo sapiens) (UniProt P15151); remark: listed apart in the source

Kd (CD155 (Homo sapiens) [1])	Kd (CD155 (Homo sapiens) [2])	Substance
0.1 µM	–	CD226 (from UniProt Q15762)
–	0.001 µM	TIGIT (from UniProt Q495A1)
